B1: afadin-CC (afadin coiled-coil region, residues 1393–1602), purified (domain or fragment, mouse, UniProt Q9QZQ1-3 1393-1602, looked up)
chain: ANQAGPQSAQVAAAEWKKREEHQRWYEKEKARLEEERERKRREQERKLGQMRSQTLNPASFSPLATQAKPEKPSTLQRPQETVIRELQPQQQPRTIERKDLQYITISKEELSSGDSLSPDPWKRDAREKLEKQQQMHIVDMLSKEIHELQNKVDRTAEESDRLRKLMLEWQFQKRLQESKQKDEDDDEEEDDDVDTMLIMQRLEAERRAR
notes: afadin coiled-coil region (afadin-CC), mouse; residues 1508–1578 are modelled in the structure; source: FreeStyle 293-F, transfected, purified (anti-GFP beads, TEV, MonoQ, SEC); not shown: GFP, N-terminal, cleaved
B2: αE-catenin α(CA) (M319G/R326E/R551E), as chain of the supra-complex (natural protein, mouse, UniProt P26231 1-906, looked up)
chain: MTAVHAGNINFKWDPKSLEIRTLAVERLLEPLVTQVTTLVNTNSKGPSNKKRGRSKKAHVLAASVEQATENFLEKGDKIAKESQFLKEELVVAVEDVRKQGDLMKSAAGEFADDPCSSVKRGNMVRAARALLSAVTRLLILADMADVYKLLVQLKVVEDGILKLRNAGNEQDLGIQYKALKPEVDKLNIMAAKRQQELKDVGNRDQMAAARGILQKNVPILYTASQACLQHPDVAAYKANRDLIYKQLQQAVTGISNAAQATASDDAAQHQGGSGGELAYALNNFDKQIIVDPLSFSEERFRPSLEERLESIISGAALGADSSCTEDDRRERIVAECNAVRQALQDLLSEYMGNAGRKERSDALNSAIDKMTKKTRDLRRQLRKAVMDHVSDSFLETNVPLLVLIEAAKNGNEKEVKEYAQVFREHANKLIEVANLACSISNNEEGVKLVRMSASQLEALCPQVINAALALAAKPQSKLAQENMDLFKEQWEKQVRVLTDAVDDITSIDDFLAVSENHILEDVNKCVIALQEKDVDGLDRTAGAIRGRAAEVIHVVTSEMDNYEPGVYTEKVLEATKLLSNTVMPRFTEQVEAAVEALSSDPAQPMDENEFIDASRLVYDGIRDIRKAVLMIRTPEELDDSDFETEDFDVRSRTSVQTEDDQLIAGQSARAIMAQLPQEQKAKIAEQVASFQEEKSKLDAEVSKWDDSGNDIIVLAKQMCMIMMEMTDFTRGKGPLKNTSDVISAAKKIAEAGSRMDKLGRTIADHCPDSACKQDLLAYLQRIALYCHQLNICSKVKAEVQNLGGELVVSGVDSAMSLIQAAKNLMNAVVQTVKASYVASTKYQKSQGMASLNLPAVSWKMKAPEKKPLVKREKQDETQTKIKRASQKKHVNPVQALSEFKAMDSI
notes: αE-catenin, mouse, untagged; residues 690–903 are modelled in the structure; used for the pairs that touch in the cryo-EM structure; also called αE-catenin ABD; ABD1; source: FreeStyle 293-F, co-expressed and purified within the tetramer Eβα(CA)-vinculin(T12-IV)

Legend:
[1] = target: F-actin (chicken skeletal muscle actin) (UniProt P68139); assay: F-actin co-sedimentation assay; details: +CC (black bar; with mutant afadin-CC); mean ± SD of three independent experiments; parent: est. 0.89; read off a plot
[2] = target: B2; assay: cryo-EM structure; 2.5 μM tetramer Eβα(CA)-Vinculin(T12-IV) premixed with 5 μM afadin-CC, added to 0.6 μM F-actin on the grid; maps at 3.1 Å (straight, both strands decorated) and 4.1 Å (curved, one strand decorated); details: both partners purified
[3] = target: the molecule itself; assay: as above

Molecule	response [1]	other results
Eβα(CA)–vinculin(T12-IV)–afadin-CC pentamer (from UniProt Q02248;P26231;P18206-2;Q9QZQ1-3) afadin-CC:F1564A	0.35	
Eβα(CA)–vinculin(T12-IV)–afadin-CC pentamer (from UniProt Q02248;P26231;P18206-2;Q9QZQ1-3) afadin-CC:W1514A; afadin-CC:R1516A; afadin-CC:D1517A; afadin-CC:F1564A	0.3	
B1		binding result [2]: binds
B2		binding result [3]: binds

— doi:10.1101/2024.10.08.617332 (bioRxiv, 2024)
